Reference: the supplement of paper PMC10567573

B1: GNAI1 (parent)
chain: WIHCFEGVTAIIFCVALSDYDLVL

Variants of: B1
Assay: protein stability index of a GFP-peptide fusion (GPS, HEK-293T) (PSI 1-6); higher = more stable
Details: c terminus: a fixed tail appended
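Note: lentivirally expressed fusions sorted by FACS into six bins by GFP to DsRed ratio, PSI derived from sequencing read proportions per bin multiplied by bin number.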

Variant | protein stability index
WIHCFEGVTAIIFCKALSDYDLVL | 3.22
WIHCFEGVTAIIFCTALSDYDLVL | 2.03
WIHCFEGVTAIIFCCALSDYDLVL | 3.06
WIHCFEGVTAIIFCYALSDYDLVL | 3.25
WIHCFEGVTAIIFCFALSDYDLVL | 3.93
WIHCFEGVTAIIFCIALSDYDLVL | 3.06
WIHCFEGVTAIIFCDALSDYDLVL | 2.61
WIHCFEGVTAIIFCMALSDYDLVL | 1.77
WIHCFEGVTAIIFCHALSDYDLVL | 3.01
WIHCFEGVTAIIFCPALSDYDLVL | 3.22
WIHCFEGVTAIIFCQALSDYDLVL | 3.42
WIHCFEGVTAIIFCNALSDYDLVL | 3.17
WIHCFEGVTAIIFCVDLSDYDLVL | 2.96
WIHCFEGVTAIIFCVVLSDYDLVL | 1.64
WIHCFEGVTAIIFCVNLSDYDLVL | 2.25
WIHCFEGVTAIIFCVYLSDYDLVL | 4.61
WIHCFEGVTAIIFCVMLSDYDLVL | 2.41
WIHCFEGVTAIIFCVSLSDYDLVL | 3.92
WIHCFEGVTAIIFCVLLSDYDLVL | 3.16
WIHCFEGVTAIIFCVTLSDYDLVL | 3.18
WIHCFEGVTAIIFCVQLSDYDLVL | 2.56
WIHCFEGVTAIIFCVHLSDYDLVL | 1.78
WIHCFEGVTAIIFCVKLSDYDLVL | 4.07
WIHCFEGVTAIIFCVGLSDYDLVL | 3.14

Variant | protein stability index
WIHCFEGVTAIIFCVALSDGDLVL | 2.45
WIHCFEGVTAIIFCVALSDRDLVL | 2.75
WIHCFEGVTAIIFCVALSDCDLVL | 2.61
WIHCFEGVTAIIFCVALSDTDLVL | 4.04
WIHCFEGVTAIIFCVALSDDDLVL | 3.02
WIHCFEGVTAIIFCVALSDIDLVL | 3.91
WIHCFEGVTAIIFCVALSDSDLVL | 2.35
WIHCFEGVTAIIFCVALSDFDLVL | 3.7
WIHCFEGVTAIIFCVALSDNDLVL | 3.6
WIHCFEGVTAIIFCVALSDKDLVL | 2.02
WIHCFEGVTAIIFCVALSDEDLVL | 2.71
WIHCFEGVTAIIFCVALSDVDLVL | 2.86
WIHCFEGVTAIIFCVALSDMDLVL | 1.56
WIHCFEGVTAIIFCVALSDADLVL | 3
WIHCFEGVTAIIFCVALSDLDLVL | 3.28
WIHCFEGVTAIIFCVALSDQDLVL | 4.16
WIHCFEGVTAIINCVALSDYDLVL | 2.17
WIHCFEGVTAIIKCVALSDYDLVL | 4.12
WIHCFEGVTAIISCVALSDYDLVL | 2.34
WIHCFEGVTAIIQCVALSDYDLVL | 3.46
WIHCFEGVTAIIVCVALSDYDLVL | 2.83
WIHCFEGVTAIIGCVALSDYDLVL | 2.34
WIHCFEGVTAIIPCVALSDYDLVL | 2.43
WIHCFEGVTAIIECVALSDYDLVL | 1.84

Variant | protein stability index
WIHCFEGVTAIIICVALSDYDLVL | 4.07
WIHCFEGVTAIITCVALSDYDLVL | 2.07
WIHCFEGVTAIICCVALSDYDLVL | 2.64
WIHCFEGVTAIIFCVALSDYDAVL | 1.82
WIHCFEGVTAIIFCVALSDYDCVL | 1.87
WIHCFEGVTAIIFCVALSDYDHVL | 1.34
WIHCFEGVTAIIFCVALSDYDDVL | 3.04
WIHCFEGVTAIIFCVALSDYDMVL | 2.77
WIHCFEGVTAIIFCVALSDYDKVL | 3.61
WIHCFEGVTAIIFCVALSDYDFVL | 2.5
WIHCFEGVTAIIFCVALSDYDNVL | 1.85
WIHCFEGVKAIIFCVALSDYDLVL | 2.17
WIHCFEGVAAIIFCVALSDYDLVL | 2.01
WIHCFEGVSAIIFCVALSDYDLVL | 2
WIHCFEGVGAIIFCVALSDYDLVL | 2.84
WIHCFEGVIAIIFCVALSDYDLVL | 4.15
WIHCFEGVYAIIFCVALSDYDLVL | 2.83
WIHCFEGVRAIIFCVALSDYDLVL | 2.51
WIHCFEGVQAIIFCVALSDYDLVL | 2.66
WIHCFEGVHAIIFCVALSDYDLVL | 3.23
WIHCFEGVFAIIFCVALSDYDLVL | 3.82
WIHCFEGVDAIIFCVALSDYDLVL | 3.05
WIHCFEGVWAIIFCVALSDYDLVL | 3.23
WIHCFEGVCAIIFCVALSDYDLVL | 2.57

Variant | protein stability index
WIHCFEGVTAHIFCVALSDYDLVL | 3.5
WIHCFEGVTAVIFCVALSDYDLVL | 3.49
WIHCFEGVTACIFCVALSDYDLVL | 3.28
WIHCFEGVTAPIFCVALSDYDLVL | 2.79
WIHCFEGVTASIFCVALSDYDLVL | 4.32
WIHCFEGVTAKIFCVALSDYDLVL | 3.52
WIHCFEGVTAEIFCVALSDYDLVL | 2.67
WIHCFEGVTANIFCVALSDYDLVL | 3.83
WIHCFEGVTAYIFCVALSDYDLVL | 3.17
WIHCFEGVTAMIFCVALSDYDLVL | 3.01
WIHCFEGVTADIFCVALSDYDLVL | 3.47
WIHCFEGVTAAIFCVALSDYDLVL | 1.48
WIHCFEGVTAFIFCVALSDYDLVL | 3.26
WIHCFEGVTATIFCVALSDYDLVL | 1.61
WIHCFEGVTAQIFCVALSDYDLVL | 1.86
WIHCFEGVTSIIFCVALSDYDLVL | 1.82
WIHCFEGVTIIIFCVALSDYDLVL | 1.8
WIHCFEGVTYIIFCVALSDYDLVL | 2.76
WIHCFEGVTNIIFCVALSDYDLVL | 3.19
WIHCFEGVTKIIFCVALSDYDLVL | 2.31
WIHCFEGVTWIIFCVALSDYDLVL | 2.06
WIHCFEGVTCIIFCVALSDYDLVL | 4.03
WIHCFEGVTFIIFCVALSDYDLVL | 2.31
WIHCFEGVTLIIFCVALSDYDLVL | 4.17

Variant | protein stability index
WIHCFEGVTQIIFCVALSDYDLVL | 2.09
WIHCFEGVTTIIFCVALSDYDLVL | 2.48
WIHCFEGVTDIIFCVALSDYDLVL | 1.51
WIHCFEGVTGIIFCVALSDYDLVL | 2.08
WIHCFEGVTAIIFCVALSDYSLVL | 2.76
WIHCFEGVTAIIFCVALSDYCLVL | 3.01
WIHCFEGVTAIIFCVALSDYMLVL | 2.88
WIHCFEGVTAIIFCVALSDYWLVL | 2.27
WIHCFEGVTAIIFCVALSDYLLVL | 2.81
WIHCFEGVTAIIFCVALSDYGLVL | 2.37
WIHCFEGVTAIIFCVALSDYTLVL | 4.09
WIHCFEGVTAIIFCVALSDYELVL | 4.04
WIHCFEGVTAIIFCVALSDYRLVL | 2.59
WIHCFEGVTAIIFCVALSDYYLVL | 2.41
WIHCFEGVTAIIFCVALSDYNLVL | 3.81
WIHCFEGVTAIIFCVALSDYFLVL | 4.12
WIHCFEGVTAIIFCVALSDYALVL | 3.49
WIHCFEGVTAIIFCVALSDYILVL | 3.09
WIHCFEGVTAIIFCVALSDYKLVL | 3.74
WIHCFEGVTAIIFGVALSDYDLVL | 2.52
WIHCFEGVTAIIFPVALSDYDLVL | 2.46
WIHCFEGVTAIIFIVALSDYDLVL | 3.89
WIHCFEGVTAIIFDVALSDYDLVL | 4.12
WIHCFEGVTAIIFQVALSDYDLVL | 2.43

Variant | protein stability index
WIHCFEGVTAIIFNVALSDYDLVL | 2.56
WIHCFEGVTAIIFFVALSDYDLVL | 3.23
WIHCFEGVTAIIFRVALSDYDLVL | 4.07
WIHCFEGVTAIIFYVALSDYDLVL | 3.37
WIHCFEGVTAIIFHVALSDYDLVL | 2.66
WIHCFEGVTAIIFLVALSDYDLVL | 1.8
WIHCFEGVTAIIFMVALSDYDLVL | 1.93
WIHCFEGVTAIIFSVALSDYDLVL | 3.26
WIHCFEGVTAIIFTVALSDYDLVL | 4.02
WIHCFEGVTAIIFAVALSDYDLVL | 1.32
WIHCFEGVTAIIFCVALSIYDLVL | 1.44
WIHCFEGVTAIIFCVALSLYDLVL | 2.58
WIHCFEGVTAIIFCVALSGYDLVL | 3.1
WIHCFEGVTAIIFCVALSVYDLVL | 3.39
WIHCFEGVTAIIFCVALSMYDLVL | 1.58
WIHCFEGVTAIIFCVALSPYDLVL | 3.43
WIHCFEGVTAIIFCVALSTYDLVL | 4.11
WIHCFEGVTAIIFCVALSEYDLVL | 3.67
WIHCFEGVTAIIFCVALSCYDLVL | 3.67
WIHCFEGVTAIIFCVALSQYDLVL | 2.96
WIHCFEGVTAIIFCVALSKYDLVL | 3.29
WIHCFEGVTAIIFCVALSHYDLVL | 2.87
WIHCFEGVTAIIFCVALSFYDLVL | 3.69
WIHCFEGVTAIIFCVALSYYDLVL | 3.06

Variant | protein stability index
WIHCFEGVTAIIFCVALSSYDLVL | 2.77
WIHCFEGVTAIIFCVALSAYDLVL | 2.02
WIHCFEGVTAIIFCVAASDYDLVL | 3.93
WIHCFEGVTAIIFCVAWSDYDLVL | 3.09
WIHCFEGVTAIIFCVARSDYDLVL | 2.51
WIHCFEGVTAIIFCVAHSDYDLVL | 2.71
WIHCFEGVTAIIFCVANSDYDLVL | 2.67
WIHCFEGVTAIIFCVAESDYDLVL | 3.42
WIHCFEGVTAIIFCVAKSDYDLVL | 2.55
WIHCFEGVTAIIFCVAYSDYDLVL | 2.83
WIHCFEGVTAIIFCVATSDYDLVL | 2.04
WIHCFEGVTAIIFCVAFSDYDLVL | 4.72
WIHCFEGVTAIIFCVAPSDYDLVL | 3.56
WIHCFEGVTAIIFCVAVSDYDLVL | 3.19
WIHCFEGVTAIIFCVADSDYDLVL | 3.5
WIHCFEGVTAIIFCVAQSDYDLVL | 3.55
WIHCFEGVTAIPFCVALSDYDLVL | 4.32
WIHCFEGVTAIFFCVALSDYDLVL | 3.41
WIHCFEGVTAILFCVALSDYDLVL | 3.2
WIHCFEGVTAIEFCVALSDYDLVL | 4.44
WIHCFEGVTAIKFCVALSDYDLVL | 1.93
WIHCFEGVTAITFCVALSDYDLVL | 1.79
WIHCFEGVTAIWFCVALSDYDLVL | 2.95
WIHCFEGVTAIHFCVALSDYDLVL | 1.71

Variant | protein stability index
WIHCFEGVTAIYFCVALSDYDLVL | 3.14
WIHCFEGVTAIRFCVALSDYDLVL | 5.41
WIHCFEGVTAIQFCVALSDYDLVL | 1
WIHCFEGVTAINFCVALSDYDLVL | 2.9
WIHCFEGVTAISFCVALSDYDLVL | 2.84
WIHCFEGSTAIIFCVALSDYDLVL | 1.65
WIHCFEGRTAIIFCVALSDYDLVL | 3.63
WIHCFEGYTAIIFCVALSDYDLVL | 2.2
WIHCFEGVTAIIFCVALQDYDLVL | 4.04
WIHCFEGVTAIIFCVALADYDLVL | 1.86
WIHCFEGVTAIIFCVALEDYDLVL | 4.41
WIHCFEGVTAIIFCVALLDYDLVL | 4.7
WIHCFEGVTAIIFCVALFDYDLVL | 1.9
WIHCFEGVTAIIFCVALIDYDLVL | 4.92
WIHCFEGVTAIIFCVALNDYDLVL | 2.34
WIHCFEGVTAIIFCVALWDYDLVL | 2.62
WIHCFEGVTAIIFCVALDDYDLVL | 2.67
WIHCFEGVTAIIFCVALVDYDLVL | 2.2
WIHCFEGVTAIIFCVALPDYDLVL | 2.3
WIHCFEGVTAIIFCVALTDYDLVL | 2.95
